Assay results as given in patent publication US20200017592A1 (Regeneron, published 2020).

B1: H4H14757P (antibody, human IgG4 S228P, kappa, V domains shown)
VH: EVQLVESGGGLVQPGRSLRLSCTASGFTFDDYAMHWVRQAPGKGLEWVSGIRWNGGSIGYVDSVKGRFTISRDNAKKSLHLQMNSLKTEDTALYYCAKDIGDILTGFYGEYGMDVWGQGTTVTVSS
VL: DIQMTQSPSSLSASEGDRVTITCRASQSISSYLNWYQQKAGKAPNLLIYAASSLQSGVPSRFSGSGSGTEYTLTISSLQPEDFATYYCQQSYIIPYTFGQGTKLEIKR
B2: H4H14731P (antibody, human IgG4 S228P, kappa, V domains shown)
VH: QLQLQESGPGLVKPSETLSLTCTVSGGSISSSNYYWGWIRQPPGKRLEWIGSIYYSGSTYYNPSLKTRVTISVDTSKNQFSLKLTSVTAADTAVYYCAREEAAALTHFDFWGQGTLVTVSS
VL: DIQMTQSPSSLSASVGDRVTITCRASQSISNYLNWYQQKPGKAPKLLIFAASSLQSGVPSRFSGSGSGTDFTLTISSLQPEDFATYYCQHSHSSHPITFGQGTRLEIKR
B3: H4H14760P2 (antibody, human IgG4 S228P, kappa, V domains shown)
VH: QVQLVESGGGVVQPGKSLRLSCAASGFTFSNYGIHWVRQAPGKGLEWVAIILYDGSNQHYADSVKGRFTISRDNSKNTLYLQMNNLRAEDTAVYYCARDLDLWSGYYTNGDGMDVWGQGTTVTVSS
VL: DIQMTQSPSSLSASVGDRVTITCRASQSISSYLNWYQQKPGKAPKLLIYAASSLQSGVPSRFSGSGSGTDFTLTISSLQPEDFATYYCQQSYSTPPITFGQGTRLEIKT
B4: H4H14732P2 (antibody, human IgG4 S228P, kappa, V domains shown)
VH: EVQLVESGGGLVQPGRSLRLSCAASGFTFDDYAMHWVRQAPGKGLEWVSGINWAGYNIDYADSVKGRFTISRDNAKNSLYLQMNSLRAEDTALYYCAKDMRGFSYGFPFDYWGQGTLVTVSS
VL: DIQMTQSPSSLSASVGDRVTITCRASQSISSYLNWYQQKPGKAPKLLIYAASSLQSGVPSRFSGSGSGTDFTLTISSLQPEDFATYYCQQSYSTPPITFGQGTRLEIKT

Molecular target: T1, full-length human IL-36R on cells (human, UniProt Q9HB29 20-575)
T1 sequence (looked up): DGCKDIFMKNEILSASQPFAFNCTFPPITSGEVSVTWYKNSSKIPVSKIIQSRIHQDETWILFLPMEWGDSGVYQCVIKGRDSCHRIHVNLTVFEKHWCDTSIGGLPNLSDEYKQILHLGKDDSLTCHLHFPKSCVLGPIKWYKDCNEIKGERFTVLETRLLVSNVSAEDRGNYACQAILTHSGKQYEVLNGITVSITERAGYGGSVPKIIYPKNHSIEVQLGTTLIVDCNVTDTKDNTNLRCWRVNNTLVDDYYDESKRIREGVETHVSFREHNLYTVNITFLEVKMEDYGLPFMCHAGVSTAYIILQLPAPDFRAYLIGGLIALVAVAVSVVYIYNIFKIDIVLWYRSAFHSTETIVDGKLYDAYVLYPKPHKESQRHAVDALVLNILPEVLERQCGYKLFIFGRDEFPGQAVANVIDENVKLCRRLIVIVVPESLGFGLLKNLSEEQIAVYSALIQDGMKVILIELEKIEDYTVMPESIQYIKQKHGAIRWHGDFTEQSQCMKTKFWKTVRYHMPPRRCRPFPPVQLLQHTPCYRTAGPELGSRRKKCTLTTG
Test: cell-based or functional assay

Binder | IC50 [M], NFκB-luciferase, 10 pM hIL-36γ [M] | IC50 [M], NFκB-luciferase, 20 pM hIL-36α [M] | Max Inhibition (%), NFκB-luciferase, 10 pM hIL-36γ [%] | Max Inhibition (%), NFκB-luciferase, 20 pM hIL-36α [%] | IC50 [M], NFκB-luciferase, 15 pM hIL-36β [M] | Max Inhibition (%), NFκB-luciferase, 15 pM hIL-36β [%]
B1 | 1.3e-10 | 1.8e-10 | 87 | 101 | – | –
B2 | 7.3e-10 | 7.8e-10 | 99 | 99 | 9.4e-10 | 99
B3 | 7e-10 | 4.9e-10 | 49 | 99 | – | –
B4 | > 1e-08 | > 1e-08 | 69 | 61 | > 1e-08 | 69

Molecular target: T2, Macaca fascicularis IL-36R on cells (Macaca fascicularis, UniProt A0A2K5WSK9 20-558)
T2 sequence: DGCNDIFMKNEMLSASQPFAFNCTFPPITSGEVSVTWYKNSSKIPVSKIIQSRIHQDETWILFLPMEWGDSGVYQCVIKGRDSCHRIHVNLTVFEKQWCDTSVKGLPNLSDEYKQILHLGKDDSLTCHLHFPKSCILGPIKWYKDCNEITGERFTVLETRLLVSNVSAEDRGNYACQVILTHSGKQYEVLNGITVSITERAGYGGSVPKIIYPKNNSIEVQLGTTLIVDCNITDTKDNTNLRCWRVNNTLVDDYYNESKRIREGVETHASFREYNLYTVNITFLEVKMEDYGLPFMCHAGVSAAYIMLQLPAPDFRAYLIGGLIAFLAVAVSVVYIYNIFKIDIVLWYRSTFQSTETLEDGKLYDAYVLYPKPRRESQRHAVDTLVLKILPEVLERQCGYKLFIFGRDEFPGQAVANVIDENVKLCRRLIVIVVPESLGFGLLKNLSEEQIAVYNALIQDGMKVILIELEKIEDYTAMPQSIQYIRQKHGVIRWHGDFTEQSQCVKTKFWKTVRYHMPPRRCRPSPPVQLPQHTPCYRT
Test: cell-based or functional assay

Binder | IC50 [M], NFκB-luciferase, 300 pM hIL-36γ [M] | IC50 [M], NFκB-luciferase, 500 pM hIL-36α [M] | IC50 [M], NFκB-luciferase, 600 pM hIL-36β [M] | Max Inhibition (%), NFκB-luciferase, 300 pM hIL-36γ [%] | Max Inhibition (%), NFκB-luciferase, 500 pM hIL-36α [%] | Max Inhibition (%), NFκB-luciferase, 600 pM hIL-36β [%]
B1 | > 1e-07 | > 1e-07 | > 1e-07 | 25 | 29 | 36
B2 | 5.4e-09 | 3.1e-09 | 7.1e-09 | 75 | 84 | 78
B3 | > 1e-07 | – | > 1e-07 | 43 | – | 48
B4 | > 1e-07 | > 1e-07 | > 1e-07 | 36 | 47 | 43

Molecular target: T3, recombinant human IL-36R extracellular domain expressed with a C-terminal myc-myc-hexahistidine tag (human, UniProt Q9HB29 20-337)
T3 construct: also called hIL-36R-MMH; hIL-36R.mmH
Test: SPR (Biacore 4000), mAb captured on anti-human Fc, 25°C
Protocol: (§1) Equilibrium dissociation constants (KD values) for IL-36R binding to purified anti-IL-36R antibodies were determined using a real-time surface plasmon resonance biosensor using a Biacore 4000 instrument. The Biacore sensor surface was first derivatized by amine coupling with a monoclonal mouse anti-human Fc antibody (GE, # BR-1008-39) to capture anti-IL-36R monoclonal antibodies. All binding studies were performed in 0.01 M Hepes pH 7.4, 0.15 M NaCl, 3 mM EDTA, and 0.05% v/v Surfactant Tween-20 (HBS-ET running buffer) at 25° C. and 37° C. Different concentrations of IL-36R reagents, human IL-36R extracellular domain expressed with a C-terminal myc-myc-hexahistidine tag (hIL-36R-MMH), Macaca fascicularis IL-36R extracellular domain expressed with a C-terminal myc-myc-hexahistidine tag (mfIL-36R-MMH: mROR1 signal sequence (M1-A29). Macaca fascicularis IL36R_ecto domain (D20-A336).mycmycHis6), human IL-36R extracellular domain expressed with a C-terminal mouse IgG2a Fc tag (hIL-36R-mFc: mROR1 signal sequence (M1-A29)-human IL36R (D20-Y337)-mouse IgG2aFc (E98-K330)) or an in-line fusion protein of human IL-36R extracellular domain and IL1RAcP extracellular domain expressed with mouse IgG2a Fc tag (hIL-36R-Trap-mFc: mROR1 signal sequence (M1-A29)-human IL36R ecto domain (D20-Y337)-human IL1RacP ecto domain(S21-E359)-mouse IgG2aFc) in HBS-ET running buffer (ranging from 100 nM to 3.7 nM, 3-fold dilutions) were injected over the anti-IL-36R antibody captured surface for 4 minutes at a flow rate of 30 μL/minute and their dissociation in HBS-ET running buffer was monitored for 10 minutes. Kinetic association rate constant (kₐ) and dissociation rate constant (kd) were determined by fitting the real-time sensorgrams to a 1:1 binding model using Scrubber 2.0c curve fitting software. Binding dissociation equilibrium constants (KD) and dissociative half-lives (t_{1/2}) were calculated from the kinetic rate constants as: […]

Binder | 100 nM hIL-36R-MMH Bound (RU) | Kd [nM] | koff [s⁻¹] | kon [M⁻¹ s⁻¹] | t½ [min]
B1 | 94 | 2.18 | 0.000396 | 182000 | 29
B2 | 54 | 3.72 | 0.000343 | 92200 | 34
B3 | 61 | 6.11 | 0.000415 | 67900 | 28
B4 | 26 | 13.9 | 0.000569 | 41000 | 20

Molecular target: T3, recombinant human IL-36R extracellular …
Test: SPR (Biacore 4000), mAb captured on anti-human Fc, 37°C
Protocol: as §1

Binder | 100 nM hIL-36R-MMH Bound (RU) | Kd [nM] | koff [s⁻¹] | kon [M⁻¹ s⁻¹] | t½ [min]
B1 | 129 | 5.18 | 0.00109 | 210000 | 11
B2 | 81 | 7.11 | 0.000971 | 137000 | 12
B3 | 83 | 23 | 0.00208 | 90600 | 6
B4 | 34 | 27.6 | 0.00116 | 42100 | 10
